Positions count from the first letter of the chain named. Blank lines part the entries; values can stand above or below the binder they belong to.
How the values were obtained:
[1] = molecular target: T1, monkey CD3e (Macaca fascicularis) on PBMC (Macaca fascicularis, UniProt Q95LI5 22-198); test: flow cytometry, Macaca fascicularis PBMC, antibody concentration not given, anti-human IgG Fc-Alexa Fluor647 (1:500), anti-hTcRβ-PerCP (1:30)
T1 construct: Target on PBMC from Macaca fascicularis; also called mfCD3e; monkey PBMC
Procedure: A 96-well plate was prepared. 25 ul of cell suspension was added to each well. Anti-hCD3 antibodies were added to the 96-well plate. The cells and the antibodies were incubated for 15 minutes at 4° C. 185 ul PBS was then added to each well. After centrifuge at 2000 rpm for 5 minutes, the medium was discarded. The samples were washed again. 25 ul of PBS was then added to resuspend cells.
Anti-human IgG Fc-Alexa Fluror647 (1:500) and anti-hTcRβ PerCP (1:30) were then added to each well. The cells and the antibodies were incubated for 15 minutes at 4° C. 185 ul PBS was then added to each well. After centrifuge, the residues were discarded. The samples were washed again. 25 ul of PBS was then added to resuspend cells. […] In contrast, anti-hTcRβ PerCP cannot bind to monkey PBMC.

[2] = molecular target: T2, human CD3e (T-cell surface glycoprotein CD3 epsilon chain) (human, UniProt P07766 23-207); test: flow cytometry, human PBMC, antibody 1 ug/mL, anti-human IgG Fc-Alexa Fluor647 (1:500), anti-hTcRβ-PerCP (1:30)
T2 construct: Target of the anti-hCD3e antibodies on human PBMC, Jurkat cells and cells expressing human CD3e; on T cells it is part of the CD3/TCR complex; also called hCD3e; CD3e on human PBMC
Procedure: (§1) PBMC cells were collected from a human subject. After being thawed, the cells were cultured for 3-4 hours. The medium was then discarded, and the cells were resuspended in phosphate-buffered saline (PBS). The cell concentration was then adjusted to 2×10⁶/25 μl PBS.
(§2) A 96-well plate was prepared. 25 ul of cell suspension was added to each well. […] The cells and the antibodies were incubated. After centrifuge, the residues were discarded. The samples were washed again. 25 ul of PBS was then added to each well to resuspend cells.
(§3) Anti-human IgG Fc-Alexa Fluror647 (1:500) and anit-hTcRβ PerCP (1:30) were then added to each well. The cells and the antibodies were incubated and then the cells were washed again by PBS. 300 ul of PBS was then added to each well to resuspend the cells. FACS was performed.

[3] = molecular target: T2, human CD3e (T-cell surface glycoprotein …); test: flow cytometry, human PBMC, antibody 0.01 ug/mL, anti-human IgG Fc-Alexa Fluor647 (1:500), anti-hTcRβ-PerCP (1:30)
Procedure: as §1, §2, §3

[4] = molecular target: T2, human CD3e (T-cell surface glycoprotein …); test: flow cytometry, human PBMC, antibody 0.1 ug/mL, anti-human IgG Fc-Alexa Fluor647 (1:500), anti-hTcRβ-PerCP (1:30)
Procedure: as §1, §2, §3

[5] = molecular target: T2, human CD3e (T-cell surface glycoprotein …); test: cell-based or functional assay
[6] = molecular target: T3, Histidine-tagged human CD3e protein (human, UniProt P07766 23-126); test: SPR (Biacore), human CD3e
T3 construct: also called hCD3e-His; not shown: His tag

[7] = molecular target: T4, Cynomolgus CD3 epsilon Protein, His Tag (Acrobiosystems, Cat #CDE-05226) (cynomolgus (Macaca fascicularis), UniProt Q95LI5 22-117); test: SPR (Biacore), cynomolgus CD3e His tag
T4 construct: also called monkey CD3e; not shown: His tag
T4 sequence: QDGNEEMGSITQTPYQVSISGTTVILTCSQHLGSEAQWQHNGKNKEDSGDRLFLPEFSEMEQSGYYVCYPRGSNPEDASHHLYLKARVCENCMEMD
Procedure: The binding affinity of the anti-hCD3e antibodies with monkey CD3e (Cynomolgus CD3 epsilon Protein (SEQ ID NO: 39 AA Gln 22-Asp 117), His Tag, Acrobiosystems, Cat #CDE-05226) were also measured using surface plasmon resonance (SPR) using Biacore (Biacore, INC, Piscataway N.J.) by the methods as described in the examples.

B2: 10A4-H1K2-IgG1-LALA (antibody, V domains shown)
VH: QVQLVQSGAEVKKPGASVKVSCKASGYTFTSYYIHWVRQAPGQRLEFIGWIYPGNVNAKYNEKFKGRVTITTDKSASTAYMELSSLRSEDTAVYYCAIKGGNYDWGQGTLVTVSS
VL: DVVMTQSPLSLPVTLGQPASISCQSSQSLLDSDGKTYLNWLQQRPGQSPRRLIYLVSKLGSGVPDRFSGSGSGTDFTLKISRVEAEDVGVYYCWQGTHFPRTFGGGTKLEIK
notes: Humanized; human IgG1 with LALA mutations; also called H1K2 (humanized 10A4)
upper left quadrant, percent of cells AF647+ / hTcRβ-PerCP- [1]: 47%
upper right quadrant, percent of cells AF647+ / hTcRβ-PerCP+ [1]: 2.56%
upper left quadrant, percent of cells AF647+ / hTcRβ-PerCP- [2]: 13.5%
upper right quadrant, percent of cells AF647+ / hTcRβ-PerCP+ [2]: 75.8%
upper left quadrant, percent of cells AF647+ / hTcRβ-PerCP- [3]: 2.53%
upper right quadrant, percent of cells AF647+ / hTcRβ-PerCP+ [3]: 11.6%
upper left quadrant, percent of cells AF647+ / hTcRβ-PerCP- [4]: 10.8%
upper right quadrant, percent of cells AF647+ / hTcRβ-PerCP+ [4]: 57.8%
EC50, luciferase of Jurkat-Luc-NFAT cells; antibody from supernatant [5]: 0.272 µg/mL
EC50, luciferase of Jurkat-Luc-NFAT cells; purified antibody [5]: 0.726 µg/mL
Kd [6]: 2.14 nM
koff [6]: 0.000127 s⁻¹
kon [6]: 59300 M⁻¹ s⁻¹
Kd [7]: 5.18 nM
koff [7]: 0.000298 s⁻¹
kon [7]: 57500 M⁻¹ s⁻¹

B3: 10A4-H2K3-IgG1-LALA (antibody, V domains shown)
VH: B2 VH with V20I, V68A
VL: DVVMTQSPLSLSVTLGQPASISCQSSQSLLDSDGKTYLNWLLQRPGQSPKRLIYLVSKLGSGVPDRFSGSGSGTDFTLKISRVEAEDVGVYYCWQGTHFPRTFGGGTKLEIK
notes: Humanized; human IgG1 with LALA mutations; also called H2K3 (humanized 10A4)
upper left quadrant, percent of cells AF647+ / hTcRβ-PerCP- [1]: 51.1%
upper right quadrant, percent of cells AF647+ / hTcRβ-PerCP+ [1]: 2.59%
upper left quadrant, percent of cells AF647+ / hTcRβ-PerCP- [2]: 14.9%
upper right quadrant, percent of cells AF647+ / hTcRβ-PerCP+ [2]: 74.2%
upper left quadrant, percent of cells AF647+ / hTcRβ-PerCP- [3]: 2.8%
upper right quadrant, percent of cells AF647+ / hTcRβ-PerCP+ [3]: 14.5%
upper left quadrant, percent of cells AF647+ / hTcRβ-PerCP- [4]: 7.13%
upper right quadrant, percent of cells AF647+ / hTcRβ-PerCP+ [4]: 45.6%
EC50, luciferase of Jurkat-Luc-NFAT cells; antibody from supernatant [5]: 0.416 µg/mL
EC50, luciferase of Jurkat-Luc-NFAT cells; purified antibody [5]: 0.472 µg/mL
Kd [6]: 1.38 nM
koff [6]: 8.85e-05 s⁻¹
kon [6]: 63900 M⁻¹ s⁻¹
Kd [7]: 9.12 nM
koff [7]: 0.000497 s⁻¹
kon [7]: 54500 M⁻¹ s⁻¹

B6: 10A4-H1K3-IgG1-LALA (antibody, V domains shown)
VH: B2 VH
VL: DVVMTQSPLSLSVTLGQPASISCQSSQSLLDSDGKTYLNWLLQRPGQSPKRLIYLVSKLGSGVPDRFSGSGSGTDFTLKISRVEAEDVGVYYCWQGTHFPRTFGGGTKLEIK
notes: Humanized; human IgG1 with LALA mutations; also called H1K3 (humanized 10A4)
upper left quadrant, percent of cells AF647+ / hTcRβ-PerCP- [1]: 46%
upper right quadrant, percent of cells AF647+ / hTcRβ-PerCP+ [1]: 1.54%
upper left quadrant, percent of cells AF647+ / hTcRβ-PerCP- [2]: 11%
upper right quadrant, percent of cells AF647+ / hTcRβ-PerCP+ [2]: 79.2%
upper left quadrant, percent of cells AF647+ / hTcRβ-PerCP- [3]: 2.67%
upper right quadrant, percent of cells AF647+ / hTcRβ-PerCP+ [3]: 16.6%
upper left quadrant, percent of cells AF647+ / hTcRβ-PerCP- [4]: 10.2%
upper right quadrant, percent of cells AF647+ / hTcRβ-PerCP+ [4]: 56.2%
EC50, luciferase of Jurkat-Luc-NFAT cells; antibody from supernatant [5]: 0.393 µg/mL
EC50, luciferase of Jurkat-Luc-NFAT cells; purified antibody [5]: 0.583 µg/mL
Kd [6]: 2.21 nM
koff [6]: 0.000133 s⁻¹
kon [6]: 60200 M⁻¹ s⁻¹
Kd [7]: 11.8 nM
koff [7]: 0.000508 s⁻¹
kon [7]: 43100 M⁻¹ s⁻¹

The remaining binders from weak to strong by Kd [6], led by results:

upper left quadrant, percent of cells AF647+ / hTcRβ-PerCP- [1]: 48.4%
upper right quadrant, percent of cells AF647+ / hTcRβ-PerCP+ [1]: 2.33%
upper left quadrant, percent of cells AF647+ / hTcRβ-PerCP- [2]: 11.9%
upper right quadrant, percent of cells AF647+ / hTcRβ-PerCP+ [2]: 77.6%
upper left quadrant, percent of cells AF647+ / hTcRβ-PerCP- [3]: 2.69%
upper right quadrant, percent of cells AF647+ / hTcRβ-PerCP+ [3]: 10.8%
upper left quadrant, percent of cells AF647+ / hTcRβ-PerCP- [4]: 9.8%
upper right quadrant, percent of cells AF647+ / hTcRβ-PerCP+ [4]: 50.7%
EC50, luciferase of Jurkat-Luc-NFAT cells; antibody from supernatant [5]: 0.294 µg/mL
EC50, luciferase of Jurkat-Luc-NFAT cells; purified antibody [5]: 0.524 µg/mL
Kd [6]: 1.86 nM
koff [6]: 0.000105 s⁻¹
kon [6]: 56300 M⁻¹ s⁻¹
Kd [7]: 13.2 nM
koff [7]: 0.000597 s⁻¹
kon [7]: 45200 M⁻¹ s⁻¹
B1: 10A4-H1K1-IgG1-LALA (antibody, V domains shown)
VH: B2 VH
VL: B2 VL with L109V
notes: Humanized; human IgG1 with LALA mutations; also called H1K1 (humanized 10A4)

upper left quadrant, percent of cells AF647+ / hTcRβ-PerCP- [1]: 49.4%
upper right quadrant, percent of cells AF647+ / hTcRβ-PerCP+ [1]: 2.32%
upper left quadrant, percent of cells AF647+ / hTcRβ-PerCP- [2]: 11.6%
upper right quadrant, percent of cells AF647+ / hTcRβ-PerCP+ [2]: 76.8%
upper left quadrant, percent of cells AF647+ / hTcRβ-PerCP- [3]: 2.67%
upper right quadrant, percent of cells AF647+ / hTcRβ-PerCP+ [3]: 14.8%
upper left quadrant, percent of cells AF647+ / hTcRβ-PerCP- [4]: 10.3%
upper right quadrant, percent of cells AF647+ / hTcRβ-PerCP+ [4]: 59.4%
EC50, luciferase of Jurkat-Luc-NFAT cells; antibody from supernatant [5]: 0.266 µg/mL
EC50, luciferase of Jurkat-Luc-NFAT cells; purified antibody [5]: 0.313 µg/mL
Kd [6]: 1.84 nM
koff [6]: 0.000111 s⁻¹
kon [6]: 60500 M⁻¹ s⁻¹
Kd [7]: 4.66 nM
koff [7]: 0.000261 s⁻¹
kon [7]: 55900 M⁻¹ s⁻¹
B7: 10A4-H2K1-IgG1-LALA (antibody, V domains shown)
VH: B2 VH with V20I, V68A
VL: B2 VL with L109V
notes: Humanized; human IgG1 with LALA mutations; also called H2K1 (humanized 10A4)

upper left quadrant, percent of cells AF647+ / hTcRβ-PerCP- [1]: 44.9%
upper right quadrant, percent of cells AF647+ / hTcRβ-PerCP+ [1]: 1.49%
upper left quadrant, percent of cells AF647+ / hTcRβ-PerCP- [2]: 15%
upper right quadrant, percent of cells AF647+ / hTcRβ-PerCP+ [2]: 74.4%
upper left quadrant, percent of cells AF647+ / hTcRβ-PerCP- [3]: 2.25%
upper right quadrant, percent of cells AF647+ / hTcRβ-PerCP+ [3]: 16%
upper left quadrant, percent of cells AF647+ / hTcRβ-PerCP- [4]: 8.54%
upper right quadrant, percent of cells AF647+ / hTcRβ-PerCP+ [4]: 57.1%
EC50, luciferase of Jurkat-Luc-NFAT cells; antibody from supernatant [5]: 0.253 µg/mL
Kd [6]: 1.6 nM
koff [6]: 0.000103 s⁻¹
kon [6]: 64100 M⁻¹ s⁻¹
B5: 10A4-H4K2-IgG1-LALA (antibody, V domains shown)
VH: B2 VH with V5Q, K19R, V20I, A40R, R44G, V68A, I70L, Y95F
VL: B2 VL
notes: Humanized; human IgG1 with LALA mutations; also called H4K2 (humanized 10A4)

upper left quadrant, percent of cells AF647+ / hTcRβ-PerCP- [1]: 82.7%
upper right quadrant, percent of cells AF647+ / hTcRβ-PerCP+ [1]: 0.225%
upper left quadrant, percent of cells AF647+ / hTcRβ-PerCP- [2]: 11.5%
upper right quadrant, percent of cells AF647+ / hTcRβ-PerCP+ [2]: 76.6%
upper left quadrant, percent of cells AF647+ / hTcRβ-PerCP- [3]: 2.68%
upper right quadrant, percent of cells AF647+ / hTcRβ-PerCP+ [3]: 12.5%
upper left quadrant, percent of cells AF647+ / hTcRβ-PerCP- [4]: 11%
upper right quadrant, percent of cells AF647+ / hTcRβ-PerCP+ [4]: 54.4%
EC50, luciferase of Jurkat-Luc-NFAT cells; antibody from supernatant [5]: 0.477 µg/mL
Kd [6]: 1.05 nM
koff [6]: 6.33e-05 s⁻¹
kon [6]: 60300 M⁻¹ s⁻¹
B4: 10A4-H4K3-IgG1-LALA (antibody, V domains shown)
VH: B2 VH with V5Q, K19R, V20I, A40R, R44G, V68A, I70L, Y95F
VL: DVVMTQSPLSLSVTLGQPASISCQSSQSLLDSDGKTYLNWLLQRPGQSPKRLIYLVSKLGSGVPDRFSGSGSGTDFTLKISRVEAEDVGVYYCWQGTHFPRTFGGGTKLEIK
notes: Humanized; human IgG1 with LALA mutations; also called H4K3 (humanized 10A4)
